# Measured values published in the DeepSol protein solubility set.
# Test: soluble on expression in E. coli; label from the status in PepcDB or PDB records
row,Sequence,soluble on expression in E. coli
1,MSLTNKWIGALGLLLSGQLMASELVIESWRADDKALWEQKIIPAFEAANPGIKVKFNPVPNVNYTPTLWENLKAGKAGDLITCRPFDDSLALFKAGHLAEITEMAGMENFPSFAQAPWQTDSGAQTFCVPMASVIHGFFYNKKIFNELGLSVPQTREQFFTVLDKVKADGRYIPLSMSGSESWVASELGYQNIGPNYWKGEDGRLALINGQEHLDDSQYVKVFEELARWRAYLGEDGELRDYGTSNELFTSGKAALYVAGSWEIAPFTDKVDFGVMRPPVAKQGDGCFFTDHTDIGMGMNPASKNPQAAMAFLQWLTTPEFAELYTNSLPGFFSLSNHFFDVTNPAAREMMEWRDQCDSTIRVATQILSRGQPKLGDELAEVSQAVLVGKMTPTAAAERLEQGLKRWYAPHQTRKAKEQECQCVEPISPTTRLNTLPVVDIAPVVASDPVPPTEATILSEEGGSHHHHHH,soluble
2,MTVLLSKRAINILLMLLDLEGSITTQELAESFTVSVRTIKYDLEDIRAWFEQHDETLYSKRNKGIWLDLPDSKRLLLKNEIIDVDRFETYPDQKRRVNVLIFQLLSVKGYLTAQQLADELLVSRNTIVSDLEQVERLLQAYDLTLIRQARQGFTISGEESNVRLLMEFITQKELTEYDIYQIMNYVTKTKGAEKIPKIKFGSGTLFQGCYRSALKKMRNLINPLDQNQFDYAEILSITLRVAIAAARMQMAHTIGTYRVLSQKTRFEQRNEVPLLLLQEVFERYDLPLLADEYFYIYSDLFGTHQRQDMVQLTKQVIESVSKELNYPFVNDRQLFTNLFAHLSLRFTKKHLFINEYNPFSEEIKGKHPALFLAIQSACKQLIQRSVLLVNDSFCAYIALHFLAAQERQQQEAKVVRIVYVCSTGLGVTSLIEQKILEEVPNVELAGFASVLNATEVIQAEKPDLVLSIFPIEEMTYPFIKVSPLLTDTDLSLIREEVDKILLGKRQGKGTARSTKSDVIEKNERIQSQDLLVKAYIIYEELKRMFQTKLLSEYQEAFLLHVLLMTHRITFNKQYEEIPCNREVSHERQEEIRQIECLFAKNELPVNHAEISALLNYLEQPKEEEDGTSNGSTGDHSTKC,not soluble
3,MREINMILYIHIPFCENKCGYCAFNSYENKHGLKEEYTQALCLDLKHALSQTDEPIESVFIGGGTPNTLSVKAFERIFESIYQHASLSLDCEITTEANPELITKAWCQGLKGLGINRLSLGVQSFREDKLLFLERQHSKNIAPAIETILKSGIENISIDLIYNTPLDNENSLKEELKLAKELPINHLSAYALSVEKNTNLEKNAKKPSCAHFDNVVREILEGFSFKQYEVSNYARNYQVKHNLAYWGAKDYLGCGAGAVGCVANERFFAKKLIENYIKDPLQRQVETLNKQDKRLEKLFLGLRCVLGVELSFLDENKVKFLIEENKAFIKNNRLIASDFFMADEMALWLLLEHHHHHH,not soluble
4,MGSDKIHHHHHHMKSLLAIYPGSIVSEELCIREGCLCFFDESNQRYISIPKTEISEKEVLVLQSFLTPADEGNQLSMKSPEENKWFSFLFSRGELPAYIKKRTRFVHFHLFGKIERTSFTEAVRHFWPVSFVIVWIHEDRGVIVEQESEAAAEKDELESLAKVLESDFYFSVRFYAGRFYEPDECLRKHYAREQAYFLFAEKRLPQVQSVTFEMIFPFLLLETEKEKLETLLSEEAELLFGSESELRKTIKLFIENNSNVTLTAKKLHLHRNSLQYRIDKFIERSGIDIKSYKGALLAYFICLQNESSE,not soluble
5,MSLIRSKYAFLQKLTRDLKMKSINIGEELEGATPPSVFIGSWNYPKVYAGPMIAPVQEEVEIFDSPERWIPERKTQEEIIDYRLNLVRGKQLVGVRDLDNHLVEKLQEISLSSGAIESEAQFRRKPRGLFFSEEQTPHGPSAVLENFEIENVKWDRELERAYHDTDLRAREAIVELHRKGTPFSAVQKALSVGALGEGKRRKLVPTRWSITACDSTLADHFLERVLEYEPIDTFRVHEFESLKNHYLILLTPSEWQYEWMEAFMKRDGRAMIFSDHETGKGKREYSRVGGCYYSAKMAVLDALDREEKQAGAIILREAYPGYVPLGVFNVRENVKNAMDTEPTMFNDLRGALEFIDSKLKLGLEAFRVRSNLLKELEVSRQTTLDSFFREGHHHHHH,not soluble
6,MRRTRRPRFVLMNKMDDLNLHYRFLNWRRRIREIREVRAFRYQERFKHILVDGDTLSYHGNSGEVGCYVASRPLTKDSNYFEVSIVDSGVRGTIAVGLVPQYYSLDHQPGWLPDSVAYHADDGKLYNGRAKGRQFGSKCNSGDRIGCGIEPVSFDVQTAQIFFTKNGKRVGSTIMPMSPDGLFPAVGMHSLGEEVRLHLNAELGREDDSVMMVDSYEDEWGRLHDVRVCGTLLEYLGKGKSIVDVGLAQARHPLSTRSHYFEVEIVDPGEKCYIALGLARKDYPKNRHPGWSRGSVAYHADDGKIFHGSGVGDPFGPRCYKGDIMGCGIMFPRDYILDSEGDSDDSCDTVILSPTARAVRNVRNVMYLHQEGEEEEEEEEEEEDGEEIEPEHEGRKVVVFFTRNGKIIGKKDAVVPSGGFFPTIGMLSCGEKVKVDLHPLSG,soluble
7,MMNYNTPKVSIVVPSLNSISYIRECIDSILNQTLKDIEILCIDANSTDGTLEVLKNYEKKDKRLRVIISDKKSYGYQMNLGIKEAKGEYLGIVESDDYIKTNMYERLYEIAKKNDCEVVKGDFYIFAYGKTEYVNVLRNSCEDIYNYKVNWNKDIRIFLGSDGINPIGIYRLDLLRTNQIKLNETPGASYQDNGLWFQIFALAKSIYFINEAFYMLRRDNPNSSVKSKEKVYCACEEYDFIRDFLKKHPDLEKTLAPICALHRFGNYMFTLERIDERYKLDFLKRFSQDFRKILKDKELDENLFGNINMQRINKIIENPVIYYYFSRGARARLQNQLVYRLGKVVVEAKSFNKIIKLPFLMLKICLEHNFEHKVYRSIVQFRPDLKLLPLECYLDYHEALVIKEHLSYKFGKLILLSFKGWYKGKIFILPFMLKKRYKEYKNKMILEHHHHHH,not soluble
8,MGSDKIHHHHHHMKRLIGCVLLFLGASLYGCGGQGEDPETIVSEKPIEEWDDEEEDGGEWTVPDIDLSNFRHDPTEWGENVTGVKTKLDTKEQVIALTLDACGGPHGSQFDEELLAYLQEKEIPATLFVNERWIDENEDVFLSLANNPLFQIENHGSAHKPLSVNGRNAWNIEGTKSPEEVVNEITNNQQRIYQLTGRSTRLFRSGTAFYDEVAVEIANALGVEVVNYSVLGDAGATFTAEQVKAALLNAEPGAIVLMHMNQPASGTAAGVKAAIPLLIEKGYTFARLDEYDLT,not soluble
9,MAELPKTLEEAITQSREAVKSALADGVTRIQVDFLFPELKFMPVAEQFVPLFAEYESRVKVFFADAGAAALARRDWQNVPFKVEDIGTGRAASLQTKIQPEDEIFLFIAPTPVEVPQLEKMCEIIDTRPIVLLNPRLEDSGVVGIGYAARETRRRFISTIESCYYLRPVDDESALFRCYPGQWEVWLESNNEYEKIAELPKRPSGDEIDMILMKGQPAKPSEGTPAKKP,soluble
10,MDRVDVVADLNDPLSCFPDDSVIEIYAHHVLEHVRNFIQLMQEVHRVCMRDSTVTIVVPHYSNQLAYSDPTHVRFFGLYTMCYFVERVFQPFKRKVPDFYIKEKFLLCEVVYDFEPKNTFLGRLFTRRVQLFINANPKRQEFYERYLCRFFPVASVRYVLSPVKLEHHHHHH,soluble
11,MNKVKILAIVGSLRKGSYNRQLALAAKEIVKDTADFTLLDYQDVPLMNEDIEYPAPDAVKRVREEVKAADGIWFFTPEYNHFFPGVLKNLIDWLSRPVSENEPQVLAGKPAAISGISLGMSGTAIAQDHLVTLISFLDMKVMNVPRVTVPNAWQYVDDQGKLIMESIYPHLEKQAKAFVNFIQAKCL,not soluble
12,MAHHHHHHMGKFVAEQYLRRGVSVTVLARDIAKAKSLFLPIADGQREQNRLASMGYRQLSSAAEKREMTASLHYRDFRRGDRHVLRYEFRNPRSVGGPSAGSANASCDQRFALELVEGDVGSTQDLEFSMRHASIVFYLTAALEEASGPALRADDRLRSSAAWWSLGSWFCGGRRFGGFLHALDACRRVDAHFVALTPLWVHGSCLSPFYWYRRLLTHPRGYCKAVQLQEQTLLSQSGSPGARCSLGADELEARQPGGDWGCWWRSRLSTEPPDDILIKSRSPVRFSLFRLSDVVFPSFNERIVASKNNRVDDDLHVTFIQQGDLDARLLANVLVKSIGLCNSVVESRIDIGGSLRGGTDMRDANAIFDLFEQLRNE,not soluble
13,MGSDKIHHHHHHMKKKNVIVFGGGTGLSVLLRGLKTFPVSITAIVTVADDGGSSGRLRKELDIPPPGDVRNVLVALSEVEPLLEQLFQHRFENGNGLSGHSLGNLLLAGMTSITGDFARGISEMSKVLNVRGKVLPASNRSIILHGEMEDGTIVTGESSIPKAGKKIKRVFLTPKDTKPLREGLEAIRKADVIVIGPGSLYTSVLPNLLVPGICEAIKQSTARKVYICNVMTQNGETDGYTASDHLQAIMDHCGVGIVDDILVHGEPISDTVKAKYAKEKAEPVIVDEHKLKALGVGTISDYFVLEQDDVLRHNASKVSEAILEGKPRTSSSIQ,not soluble
14,MTVPYETAKAALLEAAMMHVPFDGWSETTFQAAARDAELSPSVARAICPRGAVDLAIAFHKAGDAAMLDRLAETDLSAMKFRDKVTAAVRIRLEVIEDKEAVRRGTTLFALPMYAADGAKLIWGTCDAIWTTLGDTSDDVNWYTKRATLSGVYSSTVLYWLGDDSPDHMATWGFLDRRIENVMAIEQVKAKVRQSPTLSRLMTGPNWLLSQIKAPRITPKTDLEHHHHHH,soluble
15,MVRGIRGAITVEEDTPEAIHQATRELLLKMLEANGIQSYEELAAVIFTVTEDLTSAFPAEAARQIGMHRVPLLSAREVPVPGSLPRVIRVLALWNTDTPQDRVRHVYLREAVRLRPDLESAQ,soluble
16,EAYLGVMINDLVTKEISDPYRLLTSRAEHRLWLRNDNLQERLIEKSRALGLVEADVYANYLEQQQKKKQLIDYLQTTTVGQIAALKLNFKNTAQTLFDFTKRAEIKLVDLVQLLPKRFDLDVQSLNQIDIDIKYAGYIKKSEKYFKSLNNLSSVKIPLKLNYHKVPNLASEAIVKLSKIRPTDLSVASQVAGINFNDILAIKHFLDNHE,soluble
17,MAHHHHHHMLRWTSRYLCASAAAAAGPEVHRDVEEFAVVIVGGGPSGLSAAIRLKQLAGDQRDSFRVGLVEKGSEIGAHTLSGACVEPHGLDELLPGWREQEGSVLSSMTPVTSDAFHVLIGPSRSVKVPWLPSTLHNRGNYITSLGGICKWLGEQAEALGVEIYPGFAAADVVVDEATGAVTGVQLNDRGVDKSGRRTAQYEPGMIFRAKQTIFAEGCRGSCTKQLEKRFGLRTADNPQTFGLGIKEVWEVPKERHHPGTVMHTVGWPTTDKGHDNTYGGAFLYHYGDGLISCGYVVGLDYSNPYCRPYMEMQKWKTHDLIRGQLEGGRPILYGARTLVEGGFSALPKLHFPGGVLAGDCAGFLNLPKIKGTHTAMKSGMLAAEAVYEDAFKGGKEEAASGVECKSYDDCFRSSWLYKELYTVRNVRQSFYKSFKWGMLYTGITSLLLHGREPWTLKHTTPDNLSLKPAKECVEIKYPKPDGTLTFDLLTNHSRSGTAHNADQPCHLRLKDSKVAEEVNLKAYAGPEARFCPAGVYEFVNDKLVINAQNCLHCKACDIKDPTQNINWTVPEGGGGPNYQAQM,not soluble
18,MFYAHNVDFRVFADFLYLLRVRNSGNVVLILDNASFHKSSYVLATASRLNINLLFLPPYSLDLNRIEFGRI,soluble
19,MGSDKIHHHHHHMSITKRIRDNQRNTVLSPVPPFPKSMMLEPSNACNHACRFCGNNRSGIKRVNIPVDFARDILAQAAALGVEEVGLYLRGEPFLHPRLNEIVSYAKASGIGYVYLSSNGGCGTTEAYEAVLEAGLDSFKFSINAGNRQDFKAIHGKDDFEKVVERLRWLIAYREATGLDFKIYVSSTFIDATRGAILAMRDEFAPLVDEYYVHGTCPVPGVKSTDLDHGFSLPCPMVFNRVHVTAEGYLNACCFDFENALAVADLTRVPLNDAWASPLFEDLRRKHLMRNAKGVLCGNCVAGGGVEYEPLVMEFMSRSKRHENP,not soluble
